# Measurements reported in the nanobody polyreactivity screen of Harvey et al. (2022).
# Experiment: yeast display, Sf9 membrane polyspecificity reagent, FACS + sequencing; frameworks hold sequencing errors
# Method in brief: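 A nanobody's polyreactivity label depends on the gate it was sorted from. Yeast display cells were stained with 10% biotinylated, detergent-solubilized Sf9 membrane reagent for 1 hour at 4 °C, enriched on streptavidin microbeads and sorted by FACS. The low and high (top ~1%) gates were set on anti-HA fluorescence for expression and streptavidin fluorescence for reagent binding.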
row,Sequence,polyreactivity (PSR sort gate)
1,QVQLVESGGGLVQAGGSLRLSCAASGSTSANYAMGWYRPAPGKERELVAAISGGARTNYADSVKGRFTISRDNAKNTVYLQMNSLKPEDTAVYYCATDAYYYNLLYLFPRYDYWGQGTQVTVSS,low polyreactivity
2,QVQLVESGGGLVQAGGSLRLSCAASGSTSGPYAMGWYRQAPGKETELVATISWIGDRTYYADSVKGRFTISRDNAKNTIYLQMNSLKPEDTAVYYCNADYRGYANLEGDYWGQGTQVTVSS,low polyreactivity
3,QVQLVESGGGLVQAGGSLRLSCAASGSTSGSYGMGWYRQAPGKERELVAAIRWSGGRTYYADSVKGRFTISRDNAKNTVYLQMNSLKPEDTAVYYCAKYRYTVAGYNYWGQGTQVTVSS,high polyreactivity
4,QVQLVESGGGLVQAGGSLRLSCAASGSTSIYYTMGWYRQAPGKERELVAYADSVKGRFTISRDNAKNTVYLQMNRLKPEDTAGYYCAAPRTYYSELTSPYDYWGQGAQVTVSS,low polyreactivity
5,QVQLVESGGGLVQAGGSLRLSCAASGSTSKSYTMGWYRQAPGKERELVAAISYSGVSTYYADSVKGRFTISRDNAKNTVYLQMNSLKPEDTAVYYCAKRTRKYTVGYYYWGQGTQVTVSS,high polyreactivity
6,QVQLVESGGGLVQAGGSLRLSCAASGSTSKWYAMGWYRPAPGKERELVAAITKTGGRTYYADSVKGRFTISRDNAKNTVYLQMNSLKPEDTAVYYCAVEYLRGFIVIYDYWGQGTQVTVSS,high polyreactivity
7,QVQLVESGGGLVQAGGSLRLSCAASGSTSLIYAMGWYRQAPGKERELVARISGSGGSTFYADSVKGRFTISRDNAKNTVFLQMNSLKPEDTAVYYCAAYIRGRRYNWATVGYNYWGQGTQVTVSS,high polyreactivity
8,QVQLVESGGGLVQAGGSLRLSCAASGSTSPIYAMGWYRQAPGKERELVAAINGVGSTNYADSVKGRFTISRDNAKNTVYLQMNSLKPEDTAVYYCNTRYSPGYQGTEVDYWGQGTQVTVSS,low polyreactivity
9,QVQLVESGGGLVQAGGSLRLSCAASGSTSQPYAMGWYRQAPGQERELVASITNGGITYYADSVKGRFTISRDNAKNTVYLQMNSLKPEDTAVYYCNTVSYTEFDYWGQGTQVTVSS,low polyreactivity
10,QVQLVESGGGLVQAGGSLRLSCAASGSTSRGNAMAWYRKSPGKERELVATISQSGGNTFYADSVKGRFTISLDNAKNTVYLQMNSLNPEDTAVYYCAAGRYWFAWYDYWGQGTQVTVSS,high polyreactivity
11,QVQLVESGGGLVQAGGSLRLSCAASGSTSRLYAMGWYSQAPGKERELVAAIRYSSGTTYYADSVTVRFTISRDNAKNTVYLQMNSLKPEDTAVYYCAAVTIRRYGPAEYNYWGQGTQVTVSS,high polyreactivity
12,QVQLVESGGGLVQAGGSLRLSCAASGSTSRSYTMGWYRQAPGKEREFVASIRWSGGRTYNADSVKGRFTISRDNAKNTVYLQMNSLKPEDTAVYYCNADYYRLRFRLGWYDYWGQGTQVTVSS,high polyreactivity
13,QVQLVESGGGLVQAGGSLRLSCAASGSTSRVYAMGWYRQAPGKERELVAAINKSGTRTYYADSVKGRFTISRDNAKNTVYLQMNSLKPEDTAVYYCAADQGTYGYGGFYYWGQGTQVTVSS,high polyreactivity
14,QVQLVESGGGLVQAGGSLRLSCAASGSTSRYYDMGWYRQAPGKERELVAAITWSGGTTYYADSVKGRFTISRDNAKNTVYLQMDSLKPEDTAVYYCAVDSQTANDYDYWGQGTQVTVSS,low polyreactivity
15,QVQLVESGGGLVQAGGSLRLSCAASGSTSSTYAKGWYRQAPGKERELVATINWDGASTYYADSVKGRFTISRDNATNTVYLQMNSLKPEDTAVYYCAAQSGAVHFLEDDYWGQGTQVTVSS,low polyreactivity
16,QVQLVESGGGLVQAGGSLRLSCAASGSTSTRYAMGWYRPAPGKERELVAAISKSGGRTYYADSVKGRFTMSRDNAKNTVYLQMNSLKPEDTAVYYCNTVPGRYRTFDYWGQGTQVTVSS,high polyreactivity
17,QVQLVESGGGLVQAGGSLRLSCAASGSTSTSNAMGWYRQAPGKERELVAVISSGGSTYYADSVKGRFTISRDNAKNTVYLQMNSLKPEDTAVYYCSADARIHWFVVRYEYWGQGTQVTVSS,low polyreactivity
18,QVQLVESGGGLVQAGGSLRLSCAASGSTSTYYAMGWYRQAPGKERELVAAITLGAGRKYADSVKGRFTISRDNAKNTVYLQMNSLKPEDTAVYYCAADSHIDHGKWAYDYWGQGTQVTVSS,low polyreactivity
19,QVQLVESGGGLVQAGGSLRLSCAASGSTSWSNARGWYRQAPGKERELLAAITTGASTYYADSVKGRFTMSRDNAKNTVYYQMNSLKPEDTAVYYCAADPWVLWSYYYWGQGTQVTVSS,low polyreactivity
20,QVQLVESGGGLVQAGGSLRLSCAASGSTSWYDMGWYRQPPGKERELVASISSGDSTNYADSVKGRFTISRDNAKNTVYLQMNSLKPDDTAVYYCAADFNVGFVWGDDSDYWGQGTQVTVSS,low polyreactivity
21,QVQLVESGGGLVQAGGSLRLSCAASGSTSYDNAMGWYRQAPGKERELVASISSDGSTNYADSVKGRFTISRDNAKNTVYLQMNSLKPEDTAVYYCNVEVTRGLSHDPEYDYWGQGTQVTVSS,low polyreactivity

row,Sequence,polyreactivity (PSR sort gate)
1,QVQLVESGGGLVQAGGSLRLSCAASGSTSYGYAMGWYRQAPGKERELVAAISYSGSSTYYADSVKGRFTISRDNAKNTVYLQMNSLKPEDTAVYYCNAKVYPGVGPKHRYDYWGQGTQVTVSS,low polyreactivity
2,QVQLVESGGGLVQAGGSLRLSCAASGSTSYLYAMGWYRQAPGKERELVATITTRSGSTYYADSVKGRFTISRDNAKNTVYLQINSLKPEDTAVYYCAARWISVLSEGAEHDYWGQGTQVTVSS,low polyreactivity
3,QVQLVESGGGLVQAGGSLRLSCAASGSTSYVYAMGWYRQAPGKERELVAANSGSGGRTYYADSVKGRFTISRDNAKNTVYLQMNSLKPEDTAVYYCNALTRPSYPFDYWGLGTQVTVSS,high polyreactivity
4,QVQLVESGGGLVQAGGSLRLSCAASGSTVENNVMGWYRQAPGQERELVATITWGDGSTSYADSVKGRFTISRDNAKNTVYLKMNSLKTEVTAVYYCDAVDRIGYGKNQDHDYWGQGTQVTVSS,low polyreactivity
5,QVQLVESGGGLVQAGGSLRLSCAASGSTVGAYAMGWYRQAPGKERELVAAISYSGGSTYYADSVKGRFTISRDNAKNSVYLQMNSLKPEDSAVYYCAAGTKYTSAVHFFYWGQGTQVTVSS,high polyreactivity
6,QVQLVESGGGLVQAGGSLRLSCAASGSTVINYAMGWYRHAPGKERELVATLTSDGRTYYADSVKGRCTISRDNAKNTVYLQMISLKPEDTAVYSCAKSYGGVTEYDYWGQGTQVTVSS,low polyreactivity
7,QVQLVESGGGLVQAGGSLRLSCAASGSTVKRNAMGWYRQAPGKERELVAAITQSGGSTYYADSVKGRFTISRHNAKNTVYLQMNSLKPEDTAVYYCAASDFRGRRYDYWGQGTQVTVSS,high polyreactivity
8,QVQLVESGGGLVQAGGSLRLSCAASGSTVRRYAMGWYRQAPGKERELVAAISWSGGSTYYADSVKGRFTISRDNAKNTGYLQMNSLKPEDTAVYYCAARGVTSYWQDYDYWGQGTQLTVSS,low polyreactivity
9,QVQLVESGGGLVQAGGSLRLSCAASGSTVSNYAMGWYRQAPGKERELVASISNGGSTNDADSVKGRFTISRANAKNTGYLQMNSLKPEDTAVYYCNAESKAKYDYWGQGTQVTLSS,low polyreactivity
10,QVQLVESGGGLVQAGGSLRLSCAASGSTVVIKAMGWYRQAPGKERELVARISSSGGRTYYADSVKGRFTISRDNAKNTVYLQMNSLKPEDTAVYYCAKRGYLFLRGSVRVGYNYWGQGTQVTVSS,low polyreactivity
11,QVQLVESGGGLVQAGGSLRLSCAASGSTVYHYAMGWNRQAPGKERELVAAISFSGGRTSYADSVKGRFTISRDNAKNTVDLQMNSLKPEDTAGYYCAAKYIRFARSRDYWGHGTQVTVSS,high polyreactivity
12,QVQLVESGGGLVQAGGSLRLSCAASGSTYALNAMGWYRQAPGKDRDLVDAISRRGGSTYYADSVKGRFTISRDNAKNTVYLQMNSLKPEDTAVYYCAARNQSQRTGYDFWGQGTQVTVSS,high polyreactivity
13,QVQLVESGGGLVQAGGSLRLSCAASGSTYAYYAMGWYRQATGKERELVAAISLSSGCTYYADSVKGRFTISRDKAKNTVYLQMNSLKPEDTAVYYCAADFASDSSRYEYWGQGTQVTVSS,low polyreactivity
14,QVQLVESGGGLVQAGGSLRLSCAASGSTYHKDAMAWYRQAPGKERELVAAISNGGRTYYADSVKGRFTISRDNAKNTVYLKRNSLKPEATAVYYCAAVPRRGWDIRRYDSWGQGTQVTVSS,high polyreactivity
15,QVQLVESGGGLVQAGGSLRLSCAASGSTYLINAMGWYRQAPGNERELVAAISDSGGSTHYADSVKGRFTISRDHAINTVYLHMKSLNPEDTAVYYCAATIPTTLILYGYWGQGTQVTVSS,low polyreactivity
16,QVQLVESGGGLVQAGGSLRLSCAASGSTYNINAMGWYRQAPGKERELVAAISWSGGSTYYADSVKGRFTISRDNAKNTVYLQMNSLKPEDTAVYYCNALWVWYRGSSVRWVGGYDYWGQGTQVTVSS,high polyreactivity
17,QVQLVESGGGLVQAGGSLRLSCAASGSTYPYAMGWYRQAPGKERELVAAIRWRGGSTKYADSVKGRFTISRDNAKNTVYLQMNSLKPEDTAVYYCARRWYYVLHGYWGQGTQVTVSS,high polyreactivity
18,QVQLVESGGGLVQAGGSLRLSCAASGSTYPYYAMGWYRQAPGKERELVAAITSGGSTNYADSVKGRFTISRDNAKNTVYLQMNSLKPEDTAVYYCNADSSGWFPFDYWGQGTQVTVSS,low polyreactivity
19,QVQLVESGGGLVQAGGSLRLSCAASGSTYRTYAMGWYRPAPGKERELVAAISSSGGSTYYADSVKGRFTISRDNAKNTVYLQMNSLKPEYTAVYYCNAGRSHRPHYDYWGQGTQVTVSS,high polyreactivity
20,QVQLVESGGGLVQAGGSLRLSCAASGSTYRYTMGWYRQAPGKERELVAAITGSAGRTYYADSVKGRFTISRDNAKNTVYLQMNSLKPEDTAVYYCNKVRPRKFWDYYYWGQGTQVTVSS,high polyreactivity
